Assay: soluble fraction after stress (log2 fold change); higher = more stays soluble; pooled small domains, quantitative proteomics
Settings: stress: 50 degC
In short: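 Pooled custom libraries of small protein domains were each held under stress at 50°C. The read-out, high-throughput quantitative proteomics, tracked how much of each protein stayed soluble. This is reported as a base-two log fold change used to indicate aggregation propensity. Higher values mean more protein remains in solution.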

Row | Sequence | soluble fraction (log2)
1 | HMQMEDTDALLQVAKEVVAENQDTVEAYLGGREKAFASLIGAAMKKTRGKANPKVIRQLILDLIQ | 0.254
2 | HMQMEISQRIKLERQTLKWTQEELADKIFVSKRTISNWETGRTVPDIESVLRLAKVFHVSLEDLLL | -4.57
3 | HMQMEYEKAIAYILDKIKSGELSIGSKLPAERVIADTLHIGRNSTREALSILHGMGMVDRVHGSGNYISEH | -0.421
4 | HMQMLQDPFLNALRKEHVPVSIYLVNGIKLQGQVESFDQYVVLLRNTSVTQMVYKHAISTIVPARAVSL | -0.403
5 | HMQMRKENKILVTDIGEIDEVKVIFDDDNKPYLYSYNGEDEFYRPDETYKFFDNKEQAEEYVREN | 0.0625
6 | HMQMSPREKMIYSFIESHPGTKSGEIAEKLNVPLPTVKRILSEMVSGNFIAKHGSGIGTNYSTEK | 0.233
7 | HMQMSWDAVKARLQDIVNNEDKTKPFNDEMLASKLKEQGIEIARRTVVKYRQQLGIPAARLRKK | -0.468
8 | HMQNAETPDVAAEFRTWTSADGQFQVIAKLVKLDGESVHLERQDDGRQIAVPLGKLSSEDRLFLRGVRP | 0.0447
9 | HMQNEQIAFSKFLQEVDSGRVVQVEIQGNNIKGILSDGSKFYTYSPNYPELVGKLSEKGVNIVASPVE | 0.0802
10 | HMQNFLSITSKEKIDIGNFQLISFKFENNLYDYVISGNKSELLIFQEKTIENNNENIEKITSNF | -2.06
11 | HMQNLETVEEIKELALNYLDKYQPSKKSLQVYLFRKAIDAQSNSVEKSEILKKIETVLTDLEEQGILNDAL | 0.0664
12 | HMQNMVYVATKDIPAGGVIDQDSVSKTAISTSIDTSLYITDDDLGKIAVVNISQGQSVFSNMVGT | 0.0238
13 | HMQNNITISKEIELRTGPDDTYPTLKKVTAGDNVEMLSKSDTWYEIKTNDSFVGWVPGWSIL | 0.0818
14 | HMQNSYSVEDLALKAGLSVDTIRYYQGLDLIAPPQKNGRRAIYGDEHLSRLDEIKKLALEGFSLRQISLLK | -0.652
15 | HMQNYNLTQQEKKVLQLLVSGKSYKMIAAELNVAFDTVKSHITNIYSKLHVHSGTEAVSVAIRDKI | -0.444
16 | HMQPDDELVRLLLIKIFNDKQLKVNPAVINYLLRRIDRSFESINNFVKKIDEFSLEKGRKITVNLVSGFF | -0.653
17 | HMQPFTELTPREREILGHLAEGQSNKVIARHLDISDGTVKLHVKAILRKLGVHSRVEAAVMAVEHGIR | -1.31
18 | HMQPIEIQDRITKAFERSAALEAKNINVEVDGHTVKLTGTVHSLTEKEEARKAAFFAPGVTKVENHLIVDY | 0.0426
19 | HMQPMIQIHTLANHAPVALHIKRNTQRNIIIRARDASSLNLSIPKWFSPAQLQNWLRDNEATLIRILQQAP | -2.49
20 | HMQPPKIISTVEPYREVVREYLKQGVEMTAIWQRLRENYQYTGSYSSVRRFVAQLEPRQPEA | -1.01
21 | HMQPQLFRVIADDGLNIRSGPGPEYPPVAPMLRKGTQVELLQAGDRWSKVEVVGSTDVEGWVNQRYLQAV | 0.0476
22 | HMQPSQTLSATVEFPDRLDRFLALAFPEVSRARFQRLIAEGHVSVEGVPATEIRHKLKAGQRVEAVIPPA | 0.0663
23 | HMQPTVEGLMKALETMTFNERTALALHYGLTGRQPMTFMAIGRYLGISDGRAEALVNSAIRKLR | -1.43
24 | HMQQGVEQLPVTEVGGRLMHYYEVQPKETLYSLSHKLGVGQEYIEQHNPSVRGGLRAFMTLYFPAA | -0.0212
25 | HMQQIAVDLSEFKPRLMRDMSSMLAGLYTHDLDLSSLDFSKVANFTFMFRGAIITGTLKMPKI | 0.00375
26 | HMQQLDDDTVAYVADNGIAVKSKNGKELSVDTSGLSYDIIMDMFRNLPRNGDFFSSKYWSDNIQKAQAR | 0.41

Row | Sequence | soluble fraction (log2)
27 | HMQQLIEFSVTKGHPWINKKIMDLNLPENQLILTIQREGHVVSAEGKTIILENDRITISTDDR | -0.0156
28 | HMQQPVVVQQNQTVRVVTGGPGFQVANEGRALNNGLAGQVVQVRLGNGQIISGIARAGGIVEIL | 0.0705
29 | HMQQSQLDDIKSVVGGDEGYNKLREWTQANVPDETLKAFDKILDTQDPTMIKVAVEGFAAQMRQAE | -0.36
30 | HMQQTAEDWKNKGDSLTAQSEYVEAIAAYDEAIRLDPNYAPAWSNKGNALKNLGEYYKAIQAYDEAIRL | 0.198
31 | HMQQYLDAYDKALAFGIAMNKLPSYENLTLDDKEDVDKLKEIYDGMSNYEKTFVAKDFTDKLDRYVKRIE | -0.0367
32 | HMQRADYLILYYIKMQAEQHPDSKVYLADLAAVMGLKVTELSKAVEKLQDNGFVAWKTDREAGRTYVELS | -1.31
33 | HMQRIFIDNHDRILYYSNPAGYIAGKEAVVDTMFQTQELERFLQKQSLSIRWEDGVYDRLLLGQ | 0.016
34 | HMQRRHESTPIPADFDYAAVRGLSAEVQQKLERVRPLSIGQAQRIPGMTPAAISLLLVHLERQRRSRV | -0.152
35 | HMQRSVKNNDTVQVHYTGKLTNGQIFDSSIDKQPLEFQLGQGQIIPGFEKGLIDMTVSEKKTITIPEAEAY | 0.1
36 | HMQSAEMTLDREGQPVQVRVELTGNEARITFLSDQEQTREALDAGMAQLRELLEQQGMVLAGVTV | -0.0108
37 | HMQSDQLSDREREILRLIGSGRTNQEISQELQVSGSTVRTHLQHILDKLGLENRNQAVLYAIRIGLAAPP | -0.125
38 | HMQSHGSRIWTDITGNFTREASFIELAEGKVTLQLTDGRRTIISFEILSKKDQEYVLDIGDS | -2.11
39 | HMQSKDDLLDTFRVVKGNAALLNDQNKKLIRSLKVSSFGFTGITDQAAEVKKEMPDVLLEKASIEDILF | -0.12
40 | HMQSLAAKINGYIVAQRTSIAAIAKEIGYSRVTVSRYLAGKYDSDPTGIEAKLAAFLAGQTGEE | -1.75
41 | HMQSNIHELQKKLNEALQALSEDHRAVVTMFDIQGMPHAEISKILGVSEGTVRSRLYYAHQQLQGHL | -1.03
42 | HMQSRYALLAGMLRARITEGDWVPGSAIPAETVLAKEHGVALGTMRQAIALLVSQGLLERQHGRGTFVRS | -1.16
43 | HMQSSDQTDNIYENAVSIVLETGKASASHLQRVLGIDYNLAAHLIDKMEDGGLLSPPNYLGHRDVYGYT | 0.0916
44 | HMQTFNADDIEPIIKEILQENPKAISDFLTGNENVVKFLLGQVMKNTKGKANPKVIEELLINQLRELNN | 0.00183
45 | HMQTGYHVRITASTLNVRRDHSASSAVATQVRRGEVYTIVDEYNNGGTLWGKLKSGAGWIALKYTQS | -1.81
46 | HMQTTITITNTVTGQKAQFPPPFNPMSLSKIGVDETFEKEVFVDGVDTFGYGLDGYLTFYELKDFLRSYQ | -2.5
47 | HMQVEYTRGELLQDLKEENVLYATITPSRETPTGEVDFVFKDKSIKTLYVTDVSEIEGLLMDYGIDPEVKK | -0.0511
48 | HMQVITEPFQEKYREFINMSTVTQRLEERETLSFTAQTVEGRWLTIIIVPQGYDKTGKLSTVLVANR | 0.179
49 | HMQVSDEGAIQLLVQKAIEENPQAIEAFRGGKTSALGPVVGWVMKQSKGAANPTMVKTLLEKAI | 0.293
50 | HMQVVVEKSKEKVIISGNQYYIHIVKKGETAFSIAKAYGITVDELVKNNPSAATVLKEGQALRIPVVE | 0.119
51 | HMQYDESSQLGERFLNQALNALKADPDKVGDAQWEKLLKENSAKSRQEVLADIGLGKQLAIVIARELLS | -0.115
52 | HMQYPSSLDSRAKQSLYDNLERNEILALALDNVIQSNKLDGWRDGGIKERKLRLAINNLLKNDEHTDNIME | -0.0155

Row | Sequence | soluble fraction (log2)
53 | HMQYQIITENGKQYYLYTVQKSEGFYSIGKRFEITNDEIIKANPEAALGLKLGQVLKIPVYK | -0.331
54 | HMRAAKSEDTRTRLIEGGMALFGQKGYNATGIKDITDAAGVPKGSFYNYFASKEDFGAEIIHSY | 0.122
55 | HMRAEELEQFVERLKNEVMNNFPLKELSDNELREKIENLVEIRLANVYVSIEQRVAIAEQIYSSIR | -0.0429
56 | HMRAERVQITDPYIELHTGPGRGFPIFFVAPREQWISIELRHTDWFKVRAVGGQVGWVQRKQLEST | -0.455
57 | HMRAGHDFEALKHIESSLDKHLTDEGIKIKSEKRGAIVARWYQSHVEGREVTDDDVHTWIELFF | -3.5
58 | HMRAPIGFRISNRRKSLKISQVALARLVGISPSYLNLIENNKRDVGGALLQRVALHLNIDIDDL | -3.02
59 | HMRARTLSTTGGESLLTLAESLYPDDDRARARFIEATAAANPKLFADIAALTRVLPAGTTLRMPDLRA | 0.0417
60 | HMRARTQYWPFVEEKAAELKLPLHLVNVEPLFGEQKVVVHYTANGRIDFRELVHLLARRFHARIEMR | 0.212
61 | HMRATLTDETARVVQEPTSESISLTSLRKGEEFEIGKVIRKKKEVWVTVTTSSGVKGYISGDTHIF | -0.0573
62 | HMRAVFEQLRIGQTLAGVVKAQEKGFSLVEIDGQTVAMRLPHPAAVGDTLRLRFAGHMPQAVFLLES | -0.561
63 | HMRAVPSIAFVTQKLIEQGVTMEQLVRSLLLDHEEYENDDSLERTADELFGKARMIISNYTPE | -1.01
64 | HMRDADRYAFMQENVEDFAKDMRRKHMTYDVLYEEYIRRTDNPYGYTQFKAIVQEYEKNHDYK | -0.141
65 | HMRDGYEKPTEVGEGGRNPAMLSYIGHLRAKGHLSEEDIRSMAHGFNATTFDPPLDRDEVDGLVSRY | 0.124
66 | HMRDITAQSNASELYFEERDLEAFIEKLERLYPEIRYVNRLMIHSWGQQVVRFFDPDGNLIEVGTP | -0.145
67 | HMRDKTMLGNVIRTRRKKMNLTLEELSKQVGITSGGLSQIERGLVDPSLSVLRRISRALNLPMNVMFSE | -0.281
68 | HMRDLAEAETILDALPTRLRKIVRWRHLEGLSQTEIAARLEISQMHVSRLYRRAISMIHASLADD | -0.0123
69 | HMREEQELFRKLLEVNGIGPKVAAGMLAGGRPEDVVSAIRREDVAWLTKLPGIGRKTAQRIVLDLKDKLD | -0.0754
70 | HMREPQMVTVNGDKVTHGHAYRSNVNPEDWYFTARINGQQLKPQKMEPADVAAYDKKEIGVPELMQR | -0.0941
71 | HMRESPYRRVAKFLLLIGTAEAAKIVSRLDQDQVEKVMLELSGIRSVPRDEATVILAEFESLLQQAR | -1.47
72 | HMRESRLFQILYQLLTKKKVTAANLAKQFEVSVRTIYRDIDALSSSGIPIYASQGKNGGIQLDEDF | -1.11
73 | HMRETELPVTIISAGRILAENLHLAGRDGGWLEAELKRRSLTAEQVLLLTVDAAGTVYLVRKEDL | -0.0641
74 | HMREWPLWEIFIRGQHGLNHRHVGSLHAPDAAMAIGNARDVYTRRNEGVSIWAVRSADVVASVPSE | -2.33
75 | HMRGADNAASILKEVGPHPEDGKPITVRSGRYGPYVKHGTTNATLPKDIKPEEITLDEAIALINERVAKG | -0.243
76 | HMRGGKGTVPDVTGMDAAAAVRILEKAGMNVAYIRGAGFVAEQTPAAGTKLKKGDKAYITLSWK | -0.0707

— the domain aggregation screens of Martell et al. (2025)
